# Laboratory results taken from patent US20020012949A1, “Assay systems for leptin-enhancing agents” (priority 1997, published 2002).
# Target: T1, OB-RY1141F (Homo sapiens, UniProt P48357, Y1141F)
# T1 construct: cells transfected with the full-length OB-R constructs; expressed in transfected cells; host or cells: COS-7
# T1 sequence (P48357 22-1165 Y1141F): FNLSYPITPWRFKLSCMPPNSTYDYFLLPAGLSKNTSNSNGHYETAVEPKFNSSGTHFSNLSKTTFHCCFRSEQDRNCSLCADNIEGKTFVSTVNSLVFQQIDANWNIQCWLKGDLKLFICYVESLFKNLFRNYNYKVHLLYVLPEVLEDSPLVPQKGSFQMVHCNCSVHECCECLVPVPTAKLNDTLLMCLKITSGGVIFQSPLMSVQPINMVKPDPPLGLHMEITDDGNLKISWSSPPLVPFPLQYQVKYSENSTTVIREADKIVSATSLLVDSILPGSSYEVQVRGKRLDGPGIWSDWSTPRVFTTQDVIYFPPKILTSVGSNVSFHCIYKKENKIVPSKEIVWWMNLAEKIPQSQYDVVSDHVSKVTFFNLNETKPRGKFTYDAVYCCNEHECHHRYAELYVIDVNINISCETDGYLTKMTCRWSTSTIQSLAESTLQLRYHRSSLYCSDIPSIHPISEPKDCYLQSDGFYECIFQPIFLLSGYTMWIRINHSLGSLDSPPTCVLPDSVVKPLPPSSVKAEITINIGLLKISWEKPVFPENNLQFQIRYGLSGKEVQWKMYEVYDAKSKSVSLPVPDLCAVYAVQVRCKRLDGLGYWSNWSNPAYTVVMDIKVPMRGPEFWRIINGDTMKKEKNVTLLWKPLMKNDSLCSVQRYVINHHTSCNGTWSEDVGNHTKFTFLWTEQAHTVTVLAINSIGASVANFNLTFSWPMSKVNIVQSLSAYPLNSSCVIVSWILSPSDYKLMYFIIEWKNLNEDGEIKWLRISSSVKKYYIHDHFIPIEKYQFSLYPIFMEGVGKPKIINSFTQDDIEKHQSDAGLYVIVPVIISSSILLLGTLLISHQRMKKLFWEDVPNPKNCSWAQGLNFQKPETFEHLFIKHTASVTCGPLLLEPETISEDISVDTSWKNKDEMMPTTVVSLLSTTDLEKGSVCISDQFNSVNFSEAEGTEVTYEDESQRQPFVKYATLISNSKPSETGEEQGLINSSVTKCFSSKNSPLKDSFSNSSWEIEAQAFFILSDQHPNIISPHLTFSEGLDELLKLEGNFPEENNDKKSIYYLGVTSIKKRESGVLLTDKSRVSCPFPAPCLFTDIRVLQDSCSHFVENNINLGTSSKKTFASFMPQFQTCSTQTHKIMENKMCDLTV
# Assay: Luciferase reporter gene assay (3(G3)-Cy6-LUC), leptin stimulation of COS cells expressing mutant OB-RY1141F
# Format: cell-based
# Settings: mutant construct OB-RY1141F, 100 ng/ml leptin for 24 hours
# Method: The cytoplasmic domain and full-length human OB-R was cloned by PCR using human fetal liver and adipocyte cDNA (Clontech) and cloned into the expression vectors pCMX and pMT21. Chimeric receptors were constructed by fusing the extracellular domain and transmembrane domain of TrkC (amino acids 1 to 458) to the cytoplasmic domain of OB-R (amino acids 865-1165). A triple myc epitope tag was added at the C-terminus of all OB-R constructs (18). Truncation and point mutant constructs were generated by PCR and the sequences of all constructs were verified. Expression constructs were transfected into COS-7 cells using lipofectamine (GIBCO-BRL); 36-48 hours after transfection, cells were starved for either 2 hour,s for chimeric receptors or overnight for full-length receptors prior to stimulation.
# Expression constructs (1 μg) for OB-R, OB-RY1141F, OB-RY986F, OB-RY1078, 1079F, and OB-RY986, 1141F were co-transfected with 1 μg of 3(G3)-Cy6-LUC and 0.1 μg of pCMX.LacZ into COS-7 cells (6-well dishes) using lipofectamine. The day after transfection, media was changed to serum-free OptiMEM (GIBCO-BRL) and then treated with 100 ng/ml murine leptin (PeproTech) or human leptin (R&D Systems) for 24 hours. […] Luciferase and β-galactosidase activities were measured in cell lysates (30) and luciferase activity was normalized to β-galactosidase activity to control for transfection differences. […]
substance,measurement,value
"leptin: the product of the obese gene, secreted by adipocytes; ligand of OB-R",induction of luciferase activity,no induction
